Legend:
[1] = molecular target: HCV E2 (HCV); test: Luminex assay, antibody 50 µg/ml
[2] = molecular target: Influenza HA (Wisconsin) (influenza virus); test: Luminex assay, antibody 50 µg/ml
[3] = molecular target: Histone autoantigen; test: Athena assay, mAb 25 ug/ml; positive >50
[4] = molecular target: Jo 1 autoantigen; test: Athena assay, mAb 25 ug/ml; positive >50
[5] = molecular target: RNP autoantigen; test: Athena assay, mAb 25 ug/ml; positive >50
[6] = molecular target: SSA autoantigen; test: Athena assay, mAb 25 ug/ml; positive >50
[7] = molecular target: SSB autoantigen; test: Athena assay, mAb 25 ug/ml; positive >50
[8] = molecular target: Scl 70 autoantigen; test: Athena assay, mAb 25 ug/ml; positive >50
[9] = molecular target: Sm autoantigen; test: Athena assay, mAb 25 ug/ml; positive >50
[10] = molecular target: centromere B autoantigen; test: Athena assay, mAb 25 ug/ml; positive >50
[11] = molecular target: Histone autoantigen; test: Athena assay, mAb 50 ug/ml; positive >50
[12] = molecular target: Jo 1 autoantigen; test: Athena assay, mAb 50 ug/ml; positive >50
[13] = molecular target: RNP autoantigen; test: Athena assay, mAb 50 ug/ml; positive >50
[14] = molecular target: SSA autoantigen; test: Athena assay, mAb 50 ug/ml; positive >50
[15] = molecular target: SSB autoantigen; test: Athena assay, mAb 50 ug/ml; positive >50
[16] = molecular target: Scl 70 autoantigen; test: Athena assay, mAb 50 ug/ml; positive >50
[17] = molecular target: Sm autoantigen; test: Athena assay, mAb 50 ug/ml; positive >50
[18] = molecular target: centromere B autoantigen; test: Athena assay, mAb 50 ug/ml; positive >50
[19] = molecular target: Histone autoantigen; test: Athena assay, mAb 12.5 ug/ml; positive >50
[20] = molecular target: Jo 1 autoantigen; test: Athena assay, mAb 12.5 ug/ml; positive >50
[21] = molecular target: RNP autoantigen; test: Athena assay, mAb 12.5 ug/ml; positive >50
[22] = molecular target: SSA autoantigen; test: Athena assay, mAb 12.5 ug/ml; positive >50
[23] = molecular target: SSB autoantigen; test: Athena assay, mAb 12.5 ug/ml; positive >50
[24] = molecular target: Scl 70 autoantigen; test: Athena assay, mAb 12.5 ug/ml; positive >50
[25] = molecular target: Sm autoantigen; test: Athena assay, mAb 12.5 ug/ml; positive >50
[26] = molecular target: centromere B autoantigen; test: Athena assay, mAb 12.5 ug/ml; positive >50
[27] = molecular target: Histone autoantigen; test: Athena assay, mAb 6.25 ug/ml; positive >50
[28] = molecular target: Jo 1 autoantigen; test: Athena assay, mAb 6.25 ug/ml; positive >50
[29] = molecular target: RNP autoantigen; test: Athena assay, mAb 6.25 ug/ml; positive >50
[30] = molecular target: SSA autoantigen; test: Athena assay, mAb 6.25 ug/ml; positive >50
[31] = molecular target: SSB autoantigen; test: Athena assay, mAb 6.25 ug/ml; positive >50
[32] = molecular target: Scl 70 autoantigen; test: Athena assay, mAb 6.25 ug/ml; positive >50
[33] = molecular target: Sm autoantigen; test: Athena assay, mAb 6.25 ug/ml; positive >50
[34] = molecular target: centromere B autoantigen; test: Athena assay, mAb 6.25 ug/ml; positive >50
[35] = molecular target: A244gD+ gp120 (herpes simplex virus; HIV-1); test: SPR
[36] = molecular target: A244 gD- gp120 (HIV-1); test: SPR
[37] = molecular target: HV00044 (6240 TZ5 140C) (HIV-1); test: SPR

Sequence of A244gD+ gp120 (herpes simplex virus; HIV-1) (Q69091 26-52): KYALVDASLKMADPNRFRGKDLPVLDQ

Row | Substance | background substracted RFUs [1] [RFU] | background substracted RFUs [2] [RFU] | Autoreactivity (Athena) [3] | Autoreactivity (Athena) [4] | Autoreactivity (Athena) [5] | Autoreactivity (Athena) [6] | Autoreactivity (Athena) [7] | Autoreactivity (Athena) [8] | Autoreactivity (Athena) [9] | Autoreactivity (Athena) [10] | Autoreactivity (Athena) [11] | Autoreactivity (Athena) [12] | Autoreactivity (Athena) [13] | Autoreactivity (Athena) [14] | Autoreactivity (Athena) [15] | Autoreactivity (Athena) [16] | Autoreactivity (Athena) [17] | Autoreactivity (Athena) [18] | Autoreactivity (Athena) [19] | Autoreactivity (Athena) [20] | other results
1 | 4E10 (antibody) | 89.2 | 0 | 274 | 138 | 15 | 247 | 206 | 4 | 7 | 19 | 333 | 156 | 20 | 306 | 254 | 3 | 9 | 31 | 160 | 87 | Autoreactivity (Athena) [21]: 9; Autoreactivity (Athena) [22]: 169; Autoreactivity (Athena) [23]: 124; Autoreactivity (Athena) [24]: 3; Autoreactivity (Athena) [25]: 5; Autoreactivity (Athena) [26]: 13; Autoreactivity (Athena) [27]: 113; Autoreactivity (Athena) [28]: 65; Autoreactivity (Athena) [29]: 6; Autoreactivity (Athena) [30]: 115; Autoreactivity (Athena) [31]: 93; Autoreactivity (Athena) [32]: 2; Autoreactivity (Athena) [33]: 4; Autoreactivity (Athena) [34]: 9
2 | CH02 (antibody) | 333 | 0.3 | 11.5 | 1.5 | 9 | 6 | 4.5 | 2 | 3 | 9.5 | 15.5 | 2 | 12.5 | 5.5 | 4.5 | 2.5 | 3.5 | 12.5 | 8.5 | 1 | Kd [35]: 450 nM; Autoreactivity (Athena) [21]: 6; Autoreactivity (Athena) [22]: 5; Autoreactivity (Athena) [23]: 3.5; Autoreactivity (Athena) [24]: 1.5; Autoreactivity (Athena) [25]: 2.5; Autoreactivity (Athena) [26]: 7; Autoreactivity (Athena) [27]: 7; Autoreactivity (Athena) [28]: 1.5; Autoreactivity (Athena) [29]: 5; Autoreactivity (Athena) [30]: 5; Autoreactivity (Athena) [31]: 5; Autoreactivity (Athena) [32]: 2; Autoreactivity (Athena) [33]: 2.5; Autoreactivity (Athena) [34]: 6
3 | CH03 (antibody) | 2910 | 1 | 386 | 4 | 70 | 6 | 4 | 7 | 10 | 34 | 844 | 5 | 132 | 9 | 7 | 12 | 24 | 98 | 359 | 4 | Kd [36]: 728 nM; Kd [35]: 15.6 nM; Kd [37]: 1060 nM; Autoreactivity (Athena) [21]: 74; Autoreactivity (Athena) [22]: 6; Autoreactivity (Athena) [23]: 6; Autoreactivity (Athena) [24]: 8; Autoreactivity (Athena) [25]: 9; Autoreactivity (Athena) [26]: 30; Autoreactivity (Athena) [27]: 231; Autoreactivity (Athena) [28]: 3; Autoreactivity (Athena) [29]: 51; Autoreactivity (Athena) [30]: 5; Autoreactivity (Athena) [31]: 5; Autoreactivity (Athena) [32]: 4; Autoreactivity (Athena) [33]: 7; Autoreactivity (Athena) [34]: 19
4 | CH04 (antibody) | 0.5 | 2.5 | 16 | 3 | 6 | 11 | 8 | 2 | 2 | 13 | 26 | 5 | 9 | 19 | 11 | 3 | 3 | 18 | 11 | 2.5 | Kd [36]: 410 nM; Kd [35]: 25.5 nM; Kd [37]: 360 nM; Autoreactivity (Athena) [21]: 4; Autoreactivity (Athena) [22]: 7; Autoreactivity (Athena) [23]: 4.5; Autoreactivity (Athena) [24]: 2; Autoreactivity (Athena) [25]: 2.5; Autoreactivity (Athena) [26]: 8; Autoreactivity (Athena) [27]: 9.5; Autoreactivity (Athena) [28]: 2; Autoreactivity (Athena) [29]: 3; Autoreactivity (Athena) [30]: 6; Autoreactivity (Athena) [31]: 6; Autoreactivity (Athena) [32]: 1.5; Autoreactivity (Athena) [33]: 3; Autoreactivity (Athena) [34]: 6.5
5 | Synagis (anti-RSV control mAb) (antibody) | 0.5 | 1 | – | – | – | – | – | – | – | – | – | – | – | – | – | – | – | – | – | – | –

— US20120321699A1
